Test results reported in the supplement of paper PMC12455559.

Assay: purified protein yield per well (BCA); higher = higher soluble expression
Protocol: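 Candidate PET hydrolases were expressed in E. coli C41(DE3) in 2 mL autoinduction cultures in 24-deep-well plates, Ni-bead purified and released by SUMO protease cleavage on an OT-2 robot. Yield per well was measured by BCA; values below 25 ug (0.1 mg/mL) are below the detection threshold. Melting temperature was measured by differential scanning fluorimetry with Sypro Orange, ramping from 25 C at 0.3 C/step.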

Purified protein yield per well, < 25 µg:
ADNPYQRGPDPTRSSVAASRGTFATAQVGVPAGNGFGGGVIYYPTDTSQGTFGAVAIVPGYTAKWAAEGAWTGPWLASFGLVVIGIDTNSANDFDVARDRQLPAALDYLAQRGSVRGRVDTTRLAAMGHSMGGGGALNAALRRPSSKAAVGSAPYKPSGNLASDRVATLLLAGQNDTTVTPSYVDGLHRSIPATTEKGYVELSGAGHAFPTRANSTQMRVVTPWLKVFLDDDARYSQFLCPLMDSAGINRYGSTCPLLPPDGSTGSSSSLVGSGFGKCLDAGAGQDRSKVTITSCTGGGGQKWVFNTNGTITDPQSGRCLDVDARGTADNTAVATWTCHGESNQVWTRRA [ESM189], ADNPYQRGPDPTVASVAATRGPFATAQLTVPAGNGFGGGYLYYPTDTSQGTWGAVAIVPGYSALFANEEAWMGPWLASFGFVVIGVETITRTDGADARATELLAALDYLTQRSAVRDRIDATRLAVMGHSAGGAGTILAAEQRPSLKAGVGLAPGTPGSLSLATDKVPMMVVGGQTDPTVTPAYLDNLYAGMPATTPSDFVQIAGADHLFFTRANNTEMKVLIPWLKIFLDNDTRYTQFLCPSLADPSGISLYRSKCPYLPPGTPSPSPSVSPSNPAAGCTASYRTVGSWPGGFQGEVTVTAGGAALNGWTVGWTLGSGQTITQVWNGTLTTSGSAVTVRNASYSGSVPAGGSITFGFLAAGTPSVPALTCAG [ESM028], ADNPYQRGPDPTVASVAATRGTFATAQLTVPAGNGFGGGYIYYPTDTGHGTWGAVAIVPGYSALFADEEAWMGPWLASFGFVVIGVETITRSDGADARATELLAALDYLTQRSAVRDRVDPTRLAVMGHSAGGAGTILAAERRPSLKAAVGLAPGTPGTLSLATDKVPMMVIGGQTDPTVTPAYLDNLYAGMPTTTPSDFVQIAGADHLFFTRANNTEMKVLIPWLKIFLDNDTRYTQFLCPSLADPSGISLYRSKCPYLPPGTTSPSPPSPSPSSPSQSVSPSTPVTGCTAGYRTVGSWPGGFQGEVTVTAGSAAISGWTVGWTLGSGQTITQLWNGALTTSGSAVTVRNASYSGSVPAGGSVVFGFLANGTPSAPVLACASR [ESM027], ADNPYQRGPDPTVASVAATRGTFATAQLTVPAGNGFGGGYVYYPTDTSQGTWGAVAIVPGYSARFADEEAWMGPWLASFGFVVIGVETITRTDGADARATQLLAALDYLVGQSPVRDRVDPARLAVMGHSAGGAGTIIAAERRPSLRAAVGLAPGTPGSLSLATDRVPMMVIGGQTDPTVTPSYLDNLYATVPAATPSDFVQIAGADHLFFTRANNTEMKVLIPWLKIFLDSDTRYTSLLCPSLADPSGISLYRSKCPYVPPGTTSPSPSSPSPSSPGPPVPVAACTATYRTVNAWPGGFQGEVVVTAGGTAITGWTVRWTLGSGQTISQLWNGNLTTSGSAVTVDSAAYNGSVPPAGSVVFGFLATGSPTTPAPVCASP [ESM046], ADNPYQRGPDPTVASVAATRGTFATAQLTVPPGNGFGGGYIYYPTDTSHGTWGAVAIVPGYSALFANEEAWMGPWLASFGFVVIGVETNTRSDGADARATELLAALDYLTQQSAVRDRVDAGRLAVMGHSAGGAGTILAAERRPALKAAVGLAPGTPGSLSLATDKVPMMVIGGQTDPTVTPAYLDNLYAGMPTTTPSDFVQIAGADHLFFTRANNTEMKVLIPWLKIFLDNDTRYTQFLCPSLADPSGISLYRSKCPYLPPGTTSPSPSSSVTPSSPSSPSSPSTGCTAGYRTVGQWPGGFQGEVTVTAGSAAISGWTVNWTLGSGQSVTQLWNGTLTTSGSAVTVRNASYSGSVPAGGSVVFGYLADGTPSTPLLTCTGQ [ESM032], ADNPYQRGPNPTLSSVRAGSGPYATTSTTVARSAVSGFGGGTVYYPTSTSDGTFGAVAMCPGYTATKESLAWFGPRVASHGFVVFIIDTVTTSDQPAQRGDELLAALDHLTRTSSVRSRIDASRLAVAGHSMGGGGTLEAAKDRPGLRAAVPLAPWNTTKNWSGNRVPTLIIGGQSDTIAAVSSHAVPFYTSLPTTPDKAYLE [DP074], ADPGTGGGNGGGNTCQEDCGFERGPDPSVSMLEARNGPFSVRTSRVSGLVSGFGGGTIHYPTGQSGTMGAIVVIPGFVSAESSIDWWGSQLASHGFVVMTIDTNTGFDQPPSRARQINAALDYLVDQNRASGSPVNGMIDTSRLGVIGWSMGGGGTLRVATEGRIKAAIPLAPWDTSSRQFRSVQAPTLIFACGSDLIAPVRSHASPFYNALPNGLDKAYFEISRGSHYCANGGNTNNSRLSRLGVSWMKLHLDQDQRYNQFICGPRHESDRSISEYRGNC [ESM181], ADSPYQRGPDPTPASVAATRGPFATTQATVPAGNGFNGGYVYYPTDTSQGTWGAVAIVPGYSALFANEEAWMGPWLASFGFVVIGIETNSRSDGADARATQLLAALDYLTRTSPIRDRVDANRLGVMGHSAGGAGTLLASLRRPTLKTAVGLAPGTPGNNLNMSTTQVPTMLLSGQNDGTVTPSYVQGIYNTLPAGVEHAWAELAGNDHLSFTRSNPTEMRLLIPWLKTFLDNDTRYTQFLCPLGNSTGVSRYNATCPLVPPDGPTTPPTSSPPTSAPPTTSAPTTPPPSGAPCTATYRTVNAWSGGFQGEVTVTAGTAAINGWTVTWGLNNGQSISQVWSGTLSTSGSTATIRNVSYNGSLAPGGTTSFGFLGSGTPAATSPTCASP [ESM025], AEDNPHERGPAPTQQSIEAEKGPFEVDKVTVPGGDGFAGGTIYFPKDTSKGKFGGVAISPGFMSFEAMVSWYGPRLASQGFVVFTIGTFTPMDIPSSRADQLLASLKFLVEKSPAKDRVDGTRLALMGHSMGGGGTLHAAARTPGLQAAIPLTPWELTSDFSKVQVPTLVFTGQADFVAPASMGKSFYQSIPDSTEKGYVELAGGSHFDPLFPNVTYAKYSISWLKRFVDNDTRYDQFLCPVPKDPKLSAIEETCPLG [DP013], AENPYERGPDPTESSIEASRGSFAVSQTSVSSLAVIGFGGGTIYYPTSTAQGTFGAVAISPGFTATQSSIAWIGPRLASQGFVVFTIDTNTIYDQPDSRGDQLLAALDYLTQRSDVRSRIDTSRLAVAGHSMGGGGSLEAAQDRPSLQAAVPLAPWNTQKSWSSLRVPTFIIGGESDTVAPVASHSIPFYTSIPASAEKAYMELDNASHFFPNTANTTMAKYTISWLKRFVDNDTRYEQFLCPAPDDRTISDYRDTCPHA [TEP129], AENPYQRGPDPTPASVSANRGSFATTQVSVPSGNGFGGGIIYYPTDTSQGKFGAIAIVPGYTATWAAEGAWMGHWLASFGFVVIGIDTNNRNDWDNARGQQLLAALDYLTQRSSVRDRVDATRAAVMGHSMGGGGAAYASLQRPTLKTSVGLAPASFSQNLTTTRVPTMLLSGQNDGTVTPSSVLNLYNGIPAGVEKAYLELTGAGHGFPTSNNPTMMRVVIPWFKVFIDSDTRYTQFLCPLSNGNGIRSYQSTCPLVPSTPPTSTTTSTTTTTTTTTTTTTTTTSTSTTTTTPQPGGACSAVFRTTNSWPGGYQAEVTVTAGDSGVSGWTTHWTLGSGESVSQVWNGALTVSGSSVSVRNVSYNGSLAPNRSTTFGFIGGGAPPTSPFTCTSP [ESM029], AETSYENGPDPTSSSIEAVKGPFEVSTQTVSSYSVRDFGGGTIYYPASSVEGGYGAVAISPGYTARKSSIAWLGSRLASQGFVVFTIDTKTTSDRPASRGDQLLASLDYLTENSRIKDQVDPNRLAVMGHSMGGGGVFEAAKDRPELQGAIAMTPWNTNKTFSEVSTPTLIFGAQDDTVAPVSRHSIPLYSGLPSTTPRTYLELRGASHFAPNRSNTTIAAQSIAWLKAFLDEDRRYDQFLCPGPTTGIDLSDVRTSCPF [DP036], AGEQEYRRGPDPTLASLQAQEGPFAYATVTVPDQATYDGGTIYYPTDTSQGTFGAIAISPGYTGYQNSIAWYGRLLASNGFVVFTIDVENTNYDQPNARGEQLLDALDYLTQTSSVRSRIDPNRLAVAGHSMGGGGALRASYLRPSLQASIPLTPYHTWKNWSWVTVPTMIFGAENDTVTEVEDHAEPFYNTLTSAQERFYIELNAPADHLTPTSYDPTIGQYPRAFAKRYIDTDTRYEQFLCPPPAPSSAVEESRRACLGS [DP031], AGNPHQRGPDPTPQSIVAEKGPFEVATAPAPAGNGFGGGTIYYPTDTSQGTFAGIAISPGFFGPQFSIDWYGPRLASQGFVVIAITTNALWDFPSQRADQLLAALKYLKQDSPAKDRLDGGRLGVMGHSMGGGGTMEAVLKDHSLKAAIPLTGWGITADYSGVQTPTMIIGAQFDVVAPDESYSIPFYKSLRPDLDKQFLQLAGGTHFSPNLPNTTIAKYSISWLKRFLDDDTRYQQFLCPVQPDPELSAHEATCHS [DP001], AGNPYQRGPDPTVASVAATSGPFATAQLSVPPGNGFNGGMIYYPTDTSLGTWGAVAIVPGYTALFANEEAWMGPWLASFGFVVIGVETNSRTDYDVARGTELLAALDYLTQQSPVRDRVDATRLGVIGHSMGGGGVVYATEHRPSLKSAVALAPFSPSQTMATDTVPTMVMGGQNDTVVTPSYLSGLYATMPATTQSDFLQIAGADHVYYTHPNSVEMRILIPWIKTFIDNDTRYTQFLCPALADPTGVSIYQSKCPYVPGGSTPPPPTGGPVHAVGAGKCLDVPNSSTTGGTQLQIYTCDGQSNQTFTHTSTGALSVTDNGTTMCLDANGKGTTSGTKVIIWSCNGQTNQQWNVNSNGTITGVQSGLCLDVSGASTANGALVQLWTCNGQSNQQWKLG [TEP015], ANPYERGPAPTLSSIQATTGPFATATTTVPSGNGFGGGTIYYPTDTSQGTFAAIAMSPGFFNTQSAISWYGKRIASQGFVFLTINTNTILDFPDSRATQLLAALDYLTQSSPVSSLIDSSRLGVMGYSMGGGGTLKASKTRPSLEAAVGVAPWHSTKNWSTNTVPSMMLGMQNDTVAPASSHAIPFYNSLPASIHKVYAEVRGASHSTPTSANTPIAQYSIAFLKQELDNDTRYTQFLCPAPAVGGTNPLSAYSSTCPF [DP067], APAESAQRAASPYERGPAPTEQSVSAKLGPFAFTQVPAPANASAGFNQGTVYYPNDTGQGTFGAIAITPGFLSPESSIGWLGPRLASNGFVVITLTTNSPVDFPGGRAAQMRAALDWVTKQAPDAIRSRIDPTRLGVMGWSMGGGGTLEVANTHPNIQAAVPLAPWHLTNNWSTVKVPTMIIGAQNDLIAGVGAHSEPFYESLKSAPERAYAEIKGGNHFSVTVDTPLVGKLATSWMKRFIDDDTRYDQFLCPKPTDSTLSEYRDSCPNG [DP035], APAHHAAPAHAAAHHHAPFAVRATVVPKTAVKAFGGGVIYTPQDTGKPVLGAVVITPGFTNTNADEKQLGELVASQGFVAFVIDTLDTGDLPDQRATEILAAADYLTGQSAVRSEVSAKDVGLIGYSFGGGGTMQAAQARPSIKAAIGLMPFDFPPASDPDAQYPAYPKLTTPTLVITGQKDDVADPADFGKPAYDSIPAGTPKQYLELKGLDHYAGEHAPVAAIRNAVTAFLKRYLDGNSAYAKFICPAPKVGGPITASYSSCPKG [ESM112]
